Test [1] addresses human VSIG10 protein endogenously expressed on human cell lines (DAN-G, AsPc1/ASPC-1, DU-145, ZR-75) (human) (UniProt Q8N0Z9). Briefly: FACS titration (4 concentrations) on DU-145 human cell line endogenously expressing VSIG10, vs mIgG1 kappa isotype; Kd from binding curve.
Test [2] has the same target. Nature of the test: FACS on DAN-G cells transfected with scrambled (non-target) siRNA; 10 ug/ml mAb vs mIgG1 kappa isotype.
The target is the same in test [3]. Briefly: FACS on AsPc1 cells after VSIG10 siRNA knock down; 10 ug/ml mAb vs mIgG1 kappa isotype.
For test [4] the target is unchanged. Nature of the test: FACS on DAN-G cells after VSIG10 siRNA knock down; 10 ug/ml mAb vs mIgG1 kappa isotype.
The target is the same in test [5]. Nature of the test: FACS on AsPc1 cells transfected with scrambled (non-target) siRNA; 10 ug/ml mAb vs mIgG1 kappa isotype.
For test [6], the target named is T1, human VSIG10 flag protein over-expressed in HEK293 cells (stable pool) (human).
T1 chain: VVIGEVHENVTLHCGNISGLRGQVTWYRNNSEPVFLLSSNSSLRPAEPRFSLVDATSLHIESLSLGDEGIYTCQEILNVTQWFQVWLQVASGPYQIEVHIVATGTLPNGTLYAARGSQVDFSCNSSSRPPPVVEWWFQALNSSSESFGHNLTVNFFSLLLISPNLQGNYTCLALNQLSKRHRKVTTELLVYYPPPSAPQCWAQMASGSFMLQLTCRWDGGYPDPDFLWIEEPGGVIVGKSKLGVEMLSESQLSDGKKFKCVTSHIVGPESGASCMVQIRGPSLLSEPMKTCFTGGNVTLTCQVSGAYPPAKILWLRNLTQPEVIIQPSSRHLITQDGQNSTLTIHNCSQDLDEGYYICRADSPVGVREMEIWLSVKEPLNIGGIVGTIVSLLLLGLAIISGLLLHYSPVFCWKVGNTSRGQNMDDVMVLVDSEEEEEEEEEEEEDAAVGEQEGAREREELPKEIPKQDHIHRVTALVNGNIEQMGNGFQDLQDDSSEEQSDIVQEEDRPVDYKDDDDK
Nature of the test: FACS titration (4 concentrations) on HEK293 cells over-expressing human VSIG10 Flag; Kd from binding curve. The method, then:
(§1) The mAb binding was evaluated on HEK293 cells over expressing human VSIG10 as well.
(§2) Detection was carried out using Goat Anti mouse-PE secondary Ab.

The target of test [7] is T1, human VSIG10 flag protein …. Briefly: FACS on HEK293 cells over-expressing human VSIG10 Flag vs HEK293 empty vector cells; goat anti mouse PE detection. The protocol:
The performance of the purified mAbs against human VSIG10, in FACS application were tested using HEK293 cells over-expressing human VSIG10 Flag. HEK293 cells transfected with an empty vector were used as a negative control.
Detection was carried out using Goat anti mouse PE secondary Ab.

The target is the same in test [8]. Nature of the test: FACS titration (8 concentrations) on HEK293 cells over-expressing human VSIG10 Flag; Kd from binding curve. The protocol: as §1, §2
Test [9] addresses human VSIG10 protein endogenously expressed on human cell lines (DAN-G, AsPc1/ASPC-1, DU-145, ZR-75) (human) (UniProt Q8N0Z9). Briefly: FACS titration (8 concentrations) on ASPC-1 human cell line endogenously expressing VSIG10, vs mIgG1 kappa isotype; Kd from binding curve.

B1: AB-577 anti-human VSIG10 mouse monoclonal antibody (antibody, V domains shown)
VH: QVQLQQSGPELVRPGASVKMSCKPSGYRFTDYAISWVKQRTGQGLEWVGEIYPGNGNTYFNEKFKDKATLTADRSSNTAYMQLSSLTSEDSAVYFCARGYANYLPWGQGTLVTVSA
VL: DIQMTQSSSSFSVSLGDRVTITCKASEDIYNRLAWYQQKPGNAPRLLISGATGLETGVPSRISGSGSGRDYTLSITSLQTEDVGTYYCQQYWSTPRTFGGGTKLEIK
notes: clonal supernatant was also tested in WB
The term Kd denotes a measure of binding affinity in units of concentration. A low value points to higher affinity. For the molecule B1, the Kd was 4.62 nM in test [1] and 4.67 nM in test [6]. Also, the MFI ratio of anti VSIG10 versus isotype control in [2] was 12 fold; in test [3] it was 5.2 fold; in [4], 3.54 fold; in test [5] it was 9.3 fold. In addition, in test [7], the “fold change MFI ratio (VSIG10 Flag cells vs empty vector cells)” value worked out at 160 fold.

B2: AB-576 anti-human VSIG10 mouse monoclonal antibody (antibody, V domains shown)
VH: EVQLQQSGPELVKPGASVKMSCKASGYTFTDYYMKWVKQSHGKSLEWIGDINPNNGGTTYNQKFKGKATLTVDKSSNTAYMQFNSLTSEDSAVYFCARFRLRAMDYWGQGTSVTVSS
VL: DIVMTQSPSSLTVTAGEKVTMSCKSSQSLLNSGDRKNYLTWYQQRPGLPPKLLIYWASTRESGVPDRFTGSGSGTDFTLTISSVQSEDLAVYFCQNDYIYPLTFGAGTKLELK
notes: as for B1
In the case of B2, the Kd turned out to be 4.14 nM in test [8] and 5.85 nM in test [9]. Moreover, the MFI ratio of anti VSIG10 versus isotype control in [2] came to 9.5 fold; in test [3] it was 4.4 fold; in test [4], 2.8 fold; in test [5], 9.5 fold. Also, in test [7], the “fold change MFI ratio (VSIG10 Flag cells vs empty vector cells)” value worked out at 219 fold.

For the origin of these results see US20200270343A1 (COMPUGEN, published 2020).
